# Assay: yeast display, Sf9 membrane polyspecificity reagent, FACS + sequencing; frameworks hold sequencing errors
# Outline: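 Galactose-induced (36–48 hours) yeast carrying a synthetic nanobody display library were exposed to 10% biotinylated, detergent-solubilized Sf9 membrane reagent at 4 °C for 1 hour. FACS followed streptavidin microbead enrichment, using low and high (top ~1%) gates for expression (anti-HA) and reagent binding (streptavidin). Colony PCR, MiSeq 2 × 250 sequencing and CDR-length filtering followed. Labels for polyreactivity reflect the gate of origin.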
row,Sequence,polyreactivity (PSR sort gate)
1,QVQLVESGGGLVQAGGSLRLSCAASGSIFYWNTMGWYRQAPGKERELVAAISYSGGSTYYADSVKGRFTISRDNAKNTVYLQMNSLKPEDTAVYYCAAKYYNRFYYWGQGTQVTVSS,high polyreactivity
2,QVQLVESGGGLVQAGGSLRLSCAASGSIFYWYAMGWYRPAPGKERELVAAITSSSGRTRYADSVKGRFTISRDNAKNTVYLQMNSLKPEDTAVYYCAAGRWGSYYTPRPYGYWGQGTQVTVSS,high polyreactivity
3,QVQLVESGGGLVQAGGSLRLSCAASGSIFYWYAMGWYRQAPGKEREFVAAISRSDGSTYYADSLKRRFTISRDNAKNTVYLEMNRLKPEDTAVYYCAAERYYFPRSYRYGYWGQGTQVTVSS,low polyreactivity
4,QVQLVESGGGLVQAGGSLRLSCAASGSIFYWYAMGWYRQAPGKERELVAGITGRGGSTYYADSVKGRFTISRDNAKNTVYLQMNSLKPEDTAVYYCAARYTRWRYNYKDYDYWGQGTQVTVSS,high polyreactivity
5,QVQLVESGGGLVQAGGSLRLSCAASGSIFYYNAKGWYRQAPGKERELVAGIRRSGDSTYYADSVKGRFTISRDNAKNTVYLQLNRLKPEDTAVYYCAADRVYEASQGYTYFDYDYWGQGTQVTVSS,low polyreactivity
6,QVQLVESGGGLVQAGGSLRLSCAASGSIFYYNAMGWYRQAPGKERELVAAISRSGGSTYYADSVKGRFTISRDNAKNTVYLQMNSLKPEDTAVYYCAARPNFTPYEYGYWGQGTQVTVSS,low polyreactivity
7,QVQLVESGGGLVQAGGSLRLSCAASGSIFYYNAMGWYRQAPGKERELVAAISWGDGITYYADSVKGRFTISRDNAKNTVYLQMNSLKPEDTAVYYCAVDYYYLAFEYWGQGTQVTVSS,high polyreactivity
8,QVQLVESGGGLVQAGGSLRLSCAASGSIFYYNAMGWYRQAPGKERELVAAITSGGSTHYADSVKGRFTISRDNAKNTVYLQMNSLKPEDTAVYYCAADVWYKYHRSAIIVEFDYWGQGTQVTVSS,low polyreactivity
9,QVQLVESGGGLVQAGGSLRLSCAASGSIFYYNGMGWYRHAPGKERELVASISRGGGTNYADSVKGRFTISRDNAKNTVYLQMNSLKPEDTAVYYCNARYPRSSPFGYWGLGTQVTVSS,high polyreactivity
10,QVQLVESGGGLVQAGGSLRLSCAASGSIFYYNTMAWYRQAPGKERELVAAIRQRGTSTYYADSVKGRFTISRDNAKNTVYLLMISLKPEDTAVYYCAAVTRGQSAYSYDYWGQGTKVTVSS,high polyreactivity
11,QVQLVESGGGLVQAGGSLRLSCAASGSIFYYNTMGWSRQSPGKERELVAAINTSGGSTYYADSVKGRFTISRDNATNTDYVQLNSLKPEDTAVYYCAVRYRYRFVAKGYWGQGTQVTVSS,high polyreactivity
12,QVQLVESGGGLVQAGGSLRLSCAASGSIFYYNTMGWYRQAPGKERELVAAITSTGRTNYADSVKGRFTISRDNAKNTVYLQMNSLKPEDSAVYYCAKRRFGDGDYWGQGTQVTVSS,low polyreactivity
13,QVQLVESGGGLVQAGGSLRLSCAASGSIFYYYAMGLYRQAPGKERELVAAITRRGGNTYYADSVKGRFTISRDNAKNTVYLQMNSLKPEDTAVYYCNAPGFAWYTTKYDYWGQGTQVTVSS,low polyreactivity
14,QVQLVESGGGLVQAGGSLRLSCAASGSIFYYYAMGWYRQAPGKERELVAAITYSGGSTHYADSVKGRFTISRDNAKNTVYLQMNSLKPDDTAVFYCAVYYRSHSGSRIYYWGQGTQVTVSS,high polyreactivity
15,QVQLVESGGGLVQAGGSLRLSCAASGSIFYYYAMGWYRQAPGKERELVAGITVSGGRTYYADSVKGRFTISRDNAKNTVYLQMNSLKPEDTAVYYCAADGRAKYDYWGQGTQVTVSS,low polyreactivity
16,QVQLVESGGGLVQAGGSLRLSCAASGSIFYYYAMGWYRQAPGKVRELVASISSGGRTYYADSVKGRFTISRDNAENTLYLQLNSLKPEDSAVYYCAVEVWWWEGDYDYWGLGTQVTVSS,high polyreactivity
17,QVQLVESGGGLVQAGGSLRLSCAASGSIFYYYTMGWYRQAPGKERELVAAITWSGSTYYADSVKGRFTISRDNAKNTVYLQMNSLKPEDTAVYYCNADALIAAYKYFPYTYRFNYWGQGTQVTVSS,low polyreactivity
18,QVQLVESGGGLVQAGGSLRLSCAASGSIGVYAMGWYRQSPGKERELVAGISRSGSSTFFADSVKGRFTISRDNAKNTVYLQMNSLKPEDTAVYYCTAYTYNYRQGSEYYYWGQGTQVTVSS,high polyreactivity
19,QVQLVESGGGLVQAGGSLRLSCAASGSIGYMGWYRQAPGKERELVAFITSSGGGTYYADSVKGRFTISRDNAKNTVYLQMNSLKPEDTAVYYCATKSSAGYDYWGQGTQVTVSS,low polyreactivity
20,QVQLVESGGGLVQAGGSLRLSCAASGSIIAGYAMGWYRQAPGKERELVAAISQRGTSTYYADSVKGRFTISRDIAKNTVYLQMNSLKPEDTSVYYCAARVVSRMDYWGQGTQVTVSS,high polyreactivity
21,QVQLVESGGGLVQAGGSLRLSCAASGSIIDLNAMGWYRQAPGKERDLVAAISSGGGTYYADSVKGRFTISRDNAKNNVYLQMNSLKPEDTAVYYCAAIGYRVYRYYRGRTYDYWGQGTQVTVSS,high polyreactivity
22,QVQLVESGGGLVQAGGSLRLSCAASGSIIFGYGMGWYRQAPGKERELVATITTSGGTYYADSVKGRFTISRDNAKNSVYLQMNSLKPEDTAVYYCAATAAALDGNTIMYYWGQGTQVTVSS,low polyreactivity

row,Sequence,polyreactivity (PSR sort gate)
1,QVQLVESGGGLVQAGGSLRLSCAASGSIIFLYAMGWYRQAPGKERELVASISTSGTTITYYADSVKGRFTISRDNAKNTVYLQMNSLKPEDTAVYYCAADTLYYPYDYWGQGTQVTVSS,low polyreactivity
2,QVQLVESGGGLVQAGGSLRLSCAASGSIIGDNAMGWYRPAPGKERELVAAITGGDSTYYADSVKGRFTISRDNAKNTVYLQMNSLKPEDTAVYYCNADRFRGRTVDGDYWGQGTQVTVSS,low polyreactivity
3,QVQLVESGGGLVQAGGSLRLSCAASGSIIGYYAMGWYRQAPGKDRELVAAISWSDGSTYYAVSVKGRFTISRDNAKNTVFLQMNSLKPEVTAVYYCAARFTPYITSDDGHYDYWGQGTQVTVSA,low polyreactivity
4,QVQLVESGGGLVQAGGSLRLSCAASGSIIGYYAMGWYRQAPGKERELVAAITASGGSTYYADSVKGRFTISRDNAKNTVYLQMNSLKPEDTAVYHCAADRIGGPGSYLYDYWGQGTQVTVSS,low polyreactivity
5,QVQLVESGGGLVQAGGSLRLSCAASGSIIGYYAMGWYRQAPGKERELVAAITASGGSTYYADSVKGRFTISRDNAKNTVYLQMNSLKPEDTAVYYCAAGTHTDYGRYYYWGQGTQVTVSS,low polyreactivity
6,QVQLVESGGGLVQAGGSLRLSCAASGSIILVYAMGWYRQAPGKERELVAGINSSGTSTYADSVKGRFTISRDNAKNTVYLQMNSLKPEDTAVYYCATPGIYYEMDYWGQGTQVTVSS,low polyreactivity
7,QVQLVESGGGLVQAGGSLRLSCAASGSIIPYYVMGWYRQAPGKERELVAAITSGGSTYYADSVKGRFTISRDNAKNTVYLQMNSLKPEDTAVYYCAVRWYPLYAPYWRDYWGQGTQVTVSS,high polyreactivity
8,QVQLVESGGGLVQAGGSLRLSCAASGSIIRQNAMGWYRQAPGKERELVAAISFSGTSTYYADSVKGRFTISRDNAKNTVYLQMNSLKPEDTAVYYCAVDNISYWAVENDYWGQGTQVTVSS,low polyreactivity
9,QVQLVESGGGLVQAGGSLRLSCAASGSIIRRYAMGWYRPAPGKERELVAAISSGGSTYYADSVKGRFTISRDNAKNTVYLQMNSLKPEDTAVYYCAALYYQITTTHYLHLHYDYWGEGTQVTVSS,low polyreactivity
10,QVQLVESGGGLVQAGGSLRLSCAASGSIIRWNAMGWYRQAPGKERELVAAISYSGGSTYYADSVKGRFTISRDNAKNTVYLQMNSLKPEDTAVYYCAKEYIVGFYLVFNRFDYWGQGTQVTVSS,low polyreactivity
11,QVQLVESGGGLVQAGGSLRLSCAASGSIIRWYTMAWYRQAPGKESEFVAAITRSGGSTYYADSVKVRFTISRDNAKNTVYLQMNSLKPEDTAVYYCARYANYDKRYDYWGQGTQVTVSS,high polyreactivity
12,QVQLVESGGGLVQAGGSLRLSCAASGSIISSYAMGWYRKAPGKETELLAVITRSGGSTYYADSVKGRFTISRDNAKNTVYLQMKSLKPVDTAVYYCNAQPTRIKLPSYDYWGQGTQVTVST,high polyreactivity
13,QVQLVESGGGLVQAGGSLRLSCAASGSIISSYAMGWYRQAPGKEREFVAAISSSGDSTYADSVKGRFTISRDNAKNTVYVQMNSLKPEDTAVFYCAVGGAGSDDYWGQGSQVTVSS,low polyreactivity
14,QVQLVESGGGLVQAGGSLRLSCAASGSIISYNTMGWYRQAPGKEREFVASIRRRGGSTYYADSVKGRFTISRDNAKNTVYLQMNSLKPEDTAGYYCAKANPHYVISDGVYHPRGGYWGHGTQVTVSS,low polyreactivity
15,QVQLVESGGGLVQAGGSLRLSCAASGSIITPYAMGWYRQAPGKERELVAAISGRGGSTYYADSVKGRFTISRDNAKNTVYLQMNSLKPEDTAVFFCAAKRSGGQGQGYGYWGQGTQVTVSS,high polyreactivity
16,QVQLVESGGGLVQAGGSLRLSCAASGSIITVNAMGWYRQAPGKEREFVAGITSIGGRTYYADSVKGRFTISRDNAKNTDYLQMNSLKPEDTAVYDCNKRTYRARYDYWGQGTQVTVSS,high polyreactivity
17,QVQLVESGGGLVQAGGSLRLSCAASGSIIWRNAMGWYSQAPGKERELVAAISYSGGSTYYADSVKGRFTISRDNAKNTVDLQMNSLKPEDTAVYYCAADYTEVLEYDYWGQGTQVTVSS,low polyreactivity
18,QVQLVESGGGLVQAGGSLRLSCAASGSIIWYYAMGWYRQAPGKERELVAAISISGSTYYADSVKGRFTISRDNAKNTVYLQMNSLKPEDTAVYYCAARKFFWRSNYDYWGQGTQVTVSS,low polyreactivity
19,QVQLVESGGGLVQAGGSLRLSCAASGSIIYNYAMGWYRQAPGKERELVAAINRSGGITYYADSVKGRFTISRDNAKNPVYLQMNSLKPEDTAVYYCAADRSFGHHYWYTGKRYDYWGQGTQVTVST,low polyreactivity
20,QVQLVESGGGLVQAGGSLRLSCAASGSIIYTYAMGWYRQAPGKVRELVAAITGSDNTNYADSVKGRFTISRDNAKNTVYLQMNSLNPEDTAVYYCAADFPWSTKSWHPDSGDSWGQGTQVTVSS,low polyreactivity
21,QVQLVESGGGLVQAGGSLRLSCAASGSILADYAMGWYRQGPGKERELVAGISSGGSTNYADSVKGRFTITGDNAKNTVSLQMNSLKPEDTAVYYCNADQDFLFIGYLFDYWGQGTQVTVSS,low polyreactivity

# Source: the nanobody polyreactivity screen of Harvey et al. (2022)
